Stoichiometry N data for one substance are collected here from PMC4427171.

For assay [1], the target named is PfOPRTase 1–218(Δ37–58)-H6 (Plasmodium falciparum) (UniProt Q8I3Y0). In words: crystal structure; hanging drop, 100 mM ammonium sulfate, 30% PEG 3350, 277 K; protein at 30 mg/ml; space group P212121, eight chains (four catalytic dimers) in the asymmetric unit.
Assay [2] has the same target. The assay is described as above. The source holds these as a separate data set.

Like-named read-outs stand apart in the source and are kept apart here.

As for “PfOPRTase 1–218(Δ37–58)-H6 (from UniProt Q8I3Y0 1-218) (enzyme)”, the stoichiometry N amounted to 2 in assay [1] and 4 in assay [2].
